The target in one assay is T1, C3G-AAAP (human, UniProt Q13905-1 4-1077, P283A | P284A | L286 | P287 | P289A | P453A | P454A | L456A | P457A | K459A | …).
T1 construct: human C3G isoform a, residues 4-1077; only P4 kept, P1, P2 and P3 mutated to Ala; source: E. coli BL21 (DE3), purified (IMAC, TEV digestion, reversed IMAC, SEC); not shown: His, N-terminal, cleaved; Halo, N-terminal, cleaved
T1 sequence (looked up): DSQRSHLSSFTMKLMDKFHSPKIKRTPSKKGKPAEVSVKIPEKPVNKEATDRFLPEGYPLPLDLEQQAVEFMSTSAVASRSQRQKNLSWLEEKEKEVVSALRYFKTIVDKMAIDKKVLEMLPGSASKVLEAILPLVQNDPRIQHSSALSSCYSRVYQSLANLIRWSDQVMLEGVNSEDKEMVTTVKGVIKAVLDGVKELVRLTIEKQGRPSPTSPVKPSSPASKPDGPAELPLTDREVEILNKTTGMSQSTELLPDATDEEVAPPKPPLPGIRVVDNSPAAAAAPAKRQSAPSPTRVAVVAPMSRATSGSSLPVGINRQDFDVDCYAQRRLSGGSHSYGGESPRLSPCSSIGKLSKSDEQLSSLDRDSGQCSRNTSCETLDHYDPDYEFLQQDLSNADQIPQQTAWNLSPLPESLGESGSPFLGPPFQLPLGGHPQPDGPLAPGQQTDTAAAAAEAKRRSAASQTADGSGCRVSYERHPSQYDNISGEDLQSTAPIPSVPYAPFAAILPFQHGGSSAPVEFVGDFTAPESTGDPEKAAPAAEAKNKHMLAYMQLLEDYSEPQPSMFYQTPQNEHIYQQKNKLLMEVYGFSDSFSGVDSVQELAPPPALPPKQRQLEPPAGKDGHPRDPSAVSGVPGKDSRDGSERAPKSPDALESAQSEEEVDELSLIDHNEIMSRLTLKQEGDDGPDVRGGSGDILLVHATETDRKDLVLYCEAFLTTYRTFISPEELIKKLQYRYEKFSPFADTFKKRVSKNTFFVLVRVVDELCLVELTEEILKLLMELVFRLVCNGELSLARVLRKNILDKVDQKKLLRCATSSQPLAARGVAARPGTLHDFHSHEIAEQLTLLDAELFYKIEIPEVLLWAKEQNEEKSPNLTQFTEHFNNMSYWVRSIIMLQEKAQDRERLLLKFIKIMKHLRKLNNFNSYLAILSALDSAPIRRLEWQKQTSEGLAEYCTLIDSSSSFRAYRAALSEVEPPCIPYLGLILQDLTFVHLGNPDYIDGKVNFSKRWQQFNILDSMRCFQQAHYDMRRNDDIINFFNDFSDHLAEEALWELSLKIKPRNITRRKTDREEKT
Kind of assay: ITC; single-PRM mutant of C3G in the cell titrated with CrkL or CrkL-SH3N, 25 °C, 300 mM NaCl, pH 7.5; SEDPHAT, 1:1 heteroassociation model; N is the competent fraction of C3G. Particulars: both partners purified. Background: ITC needs no label: the signal is the heat of the interaction.

Assay [1] deals with T2, C3G (full-length, residues 4-1077) (human, UniProt Q13905-1 4-1077).
T2 construct: also called C3G WT; RapGEF1; source: E. coli BL21 (DE3), purified (IMAC, TEV digestion, reversed IMAC, SEC); not shown: His, N-terminal, cleaved; Halo, N-terminal, cleaved
T2 sequence (looked up): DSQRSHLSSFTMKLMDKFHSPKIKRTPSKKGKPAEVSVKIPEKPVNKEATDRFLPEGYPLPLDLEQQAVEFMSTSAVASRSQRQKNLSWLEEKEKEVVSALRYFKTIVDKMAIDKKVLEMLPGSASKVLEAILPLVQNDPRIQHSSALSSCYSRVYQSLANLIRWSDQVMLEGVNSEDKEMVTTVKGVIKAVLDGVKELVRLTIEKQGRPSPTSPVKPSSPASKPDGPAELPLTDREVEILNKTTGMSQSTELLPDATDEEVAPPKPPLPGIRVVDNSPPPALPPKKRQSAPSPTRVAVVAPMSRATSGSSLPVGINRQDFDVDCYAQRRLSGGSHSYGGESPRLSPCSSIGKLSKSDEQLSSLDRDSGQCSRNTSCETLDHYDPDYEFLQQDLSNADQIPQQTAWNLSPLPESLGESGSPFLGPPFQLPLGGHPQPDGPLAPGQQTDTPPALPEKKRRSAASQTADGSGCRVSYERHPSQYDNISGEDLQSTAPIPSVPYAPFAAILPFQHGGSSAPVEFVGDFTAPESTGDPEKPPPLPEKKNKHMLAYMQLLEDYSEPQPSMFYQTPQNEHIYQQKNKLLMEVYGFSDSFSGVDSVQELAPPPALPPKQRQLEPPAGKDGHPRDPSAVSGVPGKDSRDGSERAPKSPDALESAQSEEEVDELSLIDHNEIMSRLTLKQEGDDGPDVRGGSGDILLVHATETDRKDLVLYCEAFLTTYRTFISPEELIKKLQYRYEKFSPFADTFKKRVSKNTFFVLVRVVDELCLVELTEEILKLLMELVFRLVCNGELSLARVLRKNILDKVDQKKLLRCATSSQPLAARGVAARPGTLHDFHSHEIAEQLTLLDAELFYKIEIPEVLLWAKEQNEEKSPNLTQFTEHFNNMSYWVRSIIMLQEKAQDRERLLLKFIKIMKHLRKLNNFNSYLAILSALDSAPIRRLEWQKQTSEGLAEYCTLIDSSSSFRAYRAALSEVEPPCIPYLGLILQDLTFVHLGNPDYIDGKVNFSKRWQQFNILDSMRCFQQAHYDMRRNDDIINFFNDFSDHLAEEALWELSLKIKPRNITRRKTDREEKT
Put plainly: ITC; C3G or pC3G in the cell titrated with the Crk protein, 25 °C, 300 mM NaCl, pH 7.5; global fit of three titrations with SEDPHAT, three symmetric binding sites, microscopic kd. Particulars: both partners purified.

B1: CrkL (full-length) (natural protein, human, UniProt P46109 1-303, looked up)
chain: MSSARFDSSDRSAWYMGPVSRQEAQTRLQGQRHGMFLVRDSSTCPGDYVLSVSENSRVSHYIINSLPNRRFKIGDQEFDHLPALLEFYKIHYLDTTTLIEPAPRYPSPPMGSVSAPNLPTAEDNLEYVRTLYDFPGNDAEDLPFKKGEILVIIEKPEEQWWSARNKDGRVGMIPVPYVEKLVRSSPHGKHGNRNSNSYGIPEPAHAYAQPQTTTPLPAVSGSPGAAITPLPSTQNGPVFAKAIQKRVPCAYDKTALALEVGDIVKVTRMNINGQWEGEVNGRKGLFPFTHVKIFDPQNPDENE
notes: human CrkL, residues 1-303, in pETEV15b; also called Crk-like protein; source: E. coli BL21 (DE3), purified (IMAC, TEV digestion, SEC); not shown: His, N-terminal, cleaved
With B1, the Kd with C3G-AAAP amounted to 2400 nM. In other words, the single-digit micromolar range.

B2: CrkL-SH3N (domain or fragment, human, UniProt P46109 125-182, looked up)
chain: LEYVRTLYDFPGNDAEDLPFKKGEILVIIEKPEEQWWSARNKDGRVGMIPVPYVEKLV
notes: human CrkL, SH3N domain, residues 125-182, in pETEV15b; source: E. coli BL21 (DE3), purified (IMAC, TEV digestion, SEC); not shown: His, N-terminal, cleaved
With B2, in the assay with C3G-AAAP, the dissociation constant (Kd) worked out at 2700 nM and the “stoichiometry N” value was 0.71. In addition, the affinity in assay [1], expressed as Kd, was 1600 nM.

In general, Kd refers to a measure of binding affinity in units of concentration. Low readings indicate higher affinity, high ones lower affinity. For orientation: stoichiometry N means the number of molecules, sites or subunits per partner or assembly.

These data come from PMC9896810, “Crk proteins activate the Rap1 guanine nucleotide exchange factor C3G by segregated adaptor-dependent and -independent mechanisms” (Cell Communication and Signaling : CCS, 2023).
